# Data taken from patent US20230095004 (Aptitude Medical Systems, Inc., published 2023).
# Where a chain is given by its changes, count along the chain named.
# T1: VEGF-165 (VEGF-A) (Homo sapiens)
# T1 chain: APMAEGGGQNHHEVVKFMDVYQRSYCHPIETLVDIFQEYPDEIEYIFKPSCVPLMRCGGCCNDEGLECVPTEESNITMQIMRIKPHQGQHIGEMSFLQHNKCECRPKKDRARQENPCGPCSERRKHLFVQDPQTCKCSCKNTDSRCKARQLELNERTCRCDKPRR
# B1: AMS0433.11 (ssRNA)
# RNA: CACAGAGAACUGUGCCUAGCAUUUUGCCAGUGAGUCGGAUCUCCGCAUAUCUGCG
# modifications: 2'-F all nucleotides
# B2: AMS0433.13 (ssRNA)
# RNA: UUUUGUGCUUGCGUAGCAACCCUCCAGUGAGUCGGAUCUCCGCAUAUCUGCG
# modifications: 2'-F all nucleotides
# B3: AMS0433.1 (ssRNA)
# RNA: ACCCUUGCUUGCGUAGCAUUUUACCAGUGAGUCGGAUCUCCGCAUAUCUGCG
# modifications: 2'-F all nucleotides
# B4: AMS0433.5 (ssRNA)
# RNA: CACCAUGCUUGCGUAGCAUCAUCCAGUGAGUCGGAUCUCCGCAUAUCUGCG
# modifications: 2'-F all nucleotides
# B5: AMSB108.0 (ssRNA)
# RNA: CGCAUAGAUAAGCCAACAAACGUACAUUCUCUGUUAGUAUUUUCUGCGUGCCAGUGAGUCGGAUCUCCACAGUUCUCUGUG
# modifications: 2'-F all nucleotides
# B6: AMSB107.11 (ssRNA)
# RNA: UGCAUGCAUUUUCCAGUGAGUCGGAUCUCCGCAUAGAUAAGCCAACAAACGUACAUUCUCUGUUAGUAUUUUCUGCG
# modifications: 2'-F all nucleotides
# B7: AMSB107.2 (ssRNA)
# RNA: UGCCAGUGAGUCGGAUCUCCACAGUAGAUAAGCCAACAAACGUACAUUCUCUGUUAGUAUUUUCCUGUG
# modifications: 2'-F all nucleotides
# B8: AMSB107.6 (ssRNA)
# RNA: UGCAUGCAACCAGUGAGUCGGAUCUCCGCAUAGAUAAGCCAACAAACGUACAUUCUCUGUUAGUAUUUUCUGCG
# modifications: 2'-F all nucleotides
# B9: AMSB107.14 (ssRNA)
# RNA: UGCACUGCAUUUUACCAGUGAGUCGGAUCUCCGCAUAGAUAAGCCAACAAACGUACAUUCUCUGUUAGUAUUUUCUGCG
# modifications: 2'-F all nucleotides
# B10: AMSB107.7 (ssRNA)
# RNA: UGCAUGCACAGUGAGUCGGAUCUCCGCAUAGAUAAGCCAACAAACGUACAUUCUCUGUUAGUAUUUUCUGCG
# modifications: 2'-F all nucleotides
# B11: AMSB107.5 (ssRNA)
# RNA: AUGCAUGCAUUUUUACCAGUGAGUCGGAUCUCCGCAUAGAUAAGCCAACAAACGUACAUUCUCUGUUAGUAUUUUCUGCG
# modifications: 2'-F all nucleotides
# B12: AMSB107.13 (ssRNA)
# RNA: B11 RNA with A1C, U2C, C4G, A5U, U6A, G7C, A9G, U10G
# modifications: 2'-F all nucleotides
# B13: AMSB107.15 (ssRNA)
# RNA: B11 RNA with A1U, U2G, G3C, C4A, A5U, U6C, G7U, C8G, A9C, U10A
# modifications: 2'-F all nucleotides
# B14: AMSB107.10 (ssRNA)
# RNA: B11 RNA with A1U, U2G, G3C, C4A, A5U, U6G, G7C, C8A, A9U
# modifications: 2'-F all nucleotides
# B15: AMSB107.17 (ssRNA)
# RNA: B11 RNA with A1G, U2C, G3U, C4G, A5U, U6A, G7C, C8A, A9G, U10C
# modifications: 2'-F all nucleotides
# B16: AMSB107.1 (ssRNA)
# RNA: UGCCAGUGAGUCGGAUCUCCGCAUAGAUAAGCCAACAAACGUACAUUCUCUGUUAGUAUUUUCUGCG
# modifications: 2'-F all nucleotides
# B17: AMSB107.4 (ssRNA)
# RNA: GCAUGCUUUUACCAGUGAGUCGGAUCUCCGCAUAGAUAAGCCAACAAACGUACAUUCUCUGUUAGUAUUUUCUGCG
# modifications: 2'-F all nucleotides
# B18: AMSB107.9 (ssRNA)
# RNA: B17 RNA with G1U, C2G, A3C, U4A, G5U, C6G, U7C, U8A
# modifications: 2'-F all nucleotides
# B19: AMSB107.0 (ssRNA)
# RNA: ACCCUUGCUUGCGUAGCAUUUUACCAGUGAGUCGGAUCUCCGCAUAGAUAAGCCAACAAACGUACAUUCUCUGUUAGUAUUUUCUGCG
# modifications: 2'-F all nucleotides
# B20: AMSB107.16 (ssRNA)
# RNA: UGCAUGCAUUUUACCAGUGAGUCGGAUCUCUUUCGCAUAGAUAAGCCAACAAACGUACAUUCUCUGUUAGUAUUUUCUGCG
# modifications: 2'-F all nucleotides
# B21: AMSB107 (ssRNA)
# RNA: UGCAUGCAUUUUACCAGUGAGUCGGAUCUCCGCAUAGAUAAGCCAACAAACGUACAUUCUCUGUUAGUAUUUUCUGCG
# modifications: 2'-F all nucleotides
# B22: AMSB107.21 (ssRNA)
# RNA: B21 RNA
# modifications: 2'-F; 2'-OMe in stem nucleotides (5' UGCAUGCA, internal CGCA, 3' UGCG)
# B23: AMSB107.19 (ssRNA)
# RNA: B21 RNA
# modifications: 2'-F; LNA at selected positions of the VEGF consensus as printed
# B24: AMSB107.12 (ssRNA)
# RNA: B21 RNA with U1C, G2U, C3G, A4U, U5A, G6C, C7A, A8G
# modifications: 2'-F all nucleotides
# B25: AMSB107.20 (ssRNA)
# RNA: B21 RNA
# modifications: 2'-F; LNA in stem nucleotides as printed
# B26: AMSB107.18 (ssRNA)
# RNA: B21 RNA
# modifications: 2'-F; LNA at selected positions of the VEGF consensus as printed
# B27: AMSB107.8 (ssRNA)
# RNA: UUUUGCAUGCAUUUUACCAGUGAGUCGGAUCUCCGCAUAGAUAAGCCAACAAACGUACAUUCUCUGUUAGUAUUUUCUGCG
# modifications: 2'-F all nucleotides
# Target: T1, VEGF-165 (VEGF-A)
# Experiment: flow; PBSMCT, 37 C
# Conditions: tags: recombinant; chain copies: 2; label: biotin
row,Binder,Kd [nM]
1,B1,16.4
2,B2,8.3
3,"CCCCAUCUGCGAAGCAGUCAGCCAGUGAGUCGGAUCUCCGCAUAUCUGCG (ssRNA, 2'-F all nucleotides) [AMS0433.6]",0.674
4,B3,0.666
5,B4,0.739
6,"UGCCAGUGAGUCGGAUCUCCUGUGAGAACACAG (ssRNA, 2'-F all nucleotides) [AMS0433.10]",8.47
7,"CACAGAGAACUGUGUGCCAGUGAGUCGGAUCUCCGCAUAUCUGCG (ssRNA, 2'-F all nucleotides) [AMS0433.7]",9.76
8,"CGUAGCAUUUUGCCAGUGAGUCGGAUCUCCGCAUAUCUGCG (ssRNA, 2'-F all nucleotides) [AMS0433.8]",8.2

# Target: VEGF-121 (VEGF-A) (Homo sapiens, UniProt P15692 SEQ:1-121)
# Experiment: flow; PBSMCT, 37 C
# Conditions: tags: recombinant; chain copies: 2; label: biotin
row,Binder,Kd [nM]
1,B1,23.2
2,B2,9.47
3,"CCCCAUCUGCGAAGCAGUCAGCCAGUGAGUCGGAUCUCCGCAUAUCUGCG (ssRNA, 2'-F all nucleotides) [AMS0433.6]",0.898
4,B3,1.12
5,B4,1.19
6,"UGCCAGUGAGUCGGAUCUCCUGUGAGAACACAG (ssRNA, 2'-F all nucleotides) [AMS0433.10]",11.4
7,"CACAGAGAACUGUGUGCCAGUGAGUCGGAUCUCCGCAUAUCUGCG (ssRNA, 2'-F all nucleotides) [AMS0433.7]",13.8
8,"CGUAGCAUUUUGCCAGUGAGUCGGAUCUCCGCAUAUCUGCG (ssRNA, 2'-F all nucleotides) [AMS0433.8]",11

# Target: Angiopoietin-2 (Ang2) (Homo sapiens, UniProt O15123 O15123:19-496)
# Sequence (O15123 19-496, one chain of several): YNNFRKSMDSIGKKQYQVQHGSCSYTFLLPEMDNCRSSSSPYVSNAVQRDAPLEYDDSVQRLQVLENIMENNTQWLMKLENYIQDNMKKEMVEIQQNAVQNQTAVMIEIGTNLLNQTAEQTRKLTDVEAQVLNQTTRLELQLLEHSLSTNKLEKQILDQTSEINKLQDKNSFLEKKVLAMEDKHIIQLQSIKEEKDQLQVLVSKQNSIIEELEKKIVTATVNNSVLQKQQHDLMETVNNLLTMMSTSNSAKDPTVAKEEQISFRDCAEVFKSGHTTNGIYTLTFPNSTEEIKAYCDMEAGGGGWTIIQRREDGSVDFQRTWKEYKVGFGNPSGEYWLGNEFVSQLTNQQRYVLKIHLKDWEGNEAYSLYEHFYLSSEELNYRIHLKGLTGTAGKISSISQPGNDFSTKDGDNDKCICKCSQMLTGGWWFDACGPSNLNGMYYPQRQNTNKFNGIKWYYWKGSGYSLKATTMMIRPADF
# Experiment: flow
# Conditions: tags: His tag; R&D Systems 623-AN
row,Binder,Kd [nM]
1,B5,0.52
2,B6,0.095
3,B7,0.82
4,B8,0.074
5,B9,0.928
6,B10,0.085
7,B11,0.096
8,B12,0.089
9,B13,0.778
10,B14,0.089
11,B15,0.086
12,B16,0.885
13,B17,0.237
14,B18,0.15
15,B19,0.222
16,B20,0.08
17,B21,0.087
18,B22,0.083
19,B23,0.083
20,B24,0.227
21,B25,0.253
22,B26,0.079
23,B27,0.095

# Target: T1, VEGF-165 (VEGF-A)
# Experiment: flow
# Conditions: tags: recombinant; chain copies: 2
row,Binder,Kd [nM]
1,B5,15.7
2,B6,0.057
3,B7,12.9
4,B8,2.34
5,B9,0.643
6,B11,0.052
7,B12,0.05
8,B13,0.765
9,B14,0.051
10,B15,0.198
11,B16,13.9
12,B17,0.225
13,B18,0.151
14,B19,1.29
15,B21,0.054
16,B22,0.052
17,B24,0.606
18,B25,0.234
19,B26,0.608
20,B27,0.048
